These results are taken from article PMC7673040 (Nature Communications, 2020).

One may read the Kd as the free concentration of one partner at which half of the binding sites on the other are occupied at equilibrium, for simple one-to-one binding. A lower Kd goes with higher affinity.

For this test, the target named is human nascent polypeptide-associated complex (NAC), unlabeled (human, UniProt Q13765 1-215; P20290-2 1-162). In words: other fluorescence titration; competition: 1 nM RNC^BDP and 20 nM NAC^Cy3B pre-incubated, unlabeled NAC or NACmt added; FRET fit to Eq. (6); Assay buffer with 1 mg/mL BSA. As to conditions: both partners purified.

B1: ribosome-nascent chain complex bearing the first ~90 amino acids of pPL(ss), labelled with BODIPY-FL on the nascent chain (complex)
chain: MDSKGSSQKGSKLALALLLLLLALALCQGVVSTPVCPNGPGNCQVSLRDLFDRAVMVSHYIHDLSSEMFNEFDKRYAQGKGFITMALNSCHTV
modifications: axial-trans-cyclooct-2-en-L-Lysine (TCOK) at an amber codon one residue upstream of the signal sequence, labelled with tetrazine-conjugated BODIPY-FL (BDP)
On to B1, for which the Kd is 0.55 nM.

B2: ribosome-nascent chain complex bearing the first ~90 amino acids of pPL(ssmt), labelled with BODIPY-FL on the nascent chain (complex)
chain: MDSKGSSQKGSKLLLRRVVSNLLLCQGVVSTPVCPNGPGNCQVSLRDLFDRAVMVSHYIHDLSSEMFNEFDKRYAQGKGFITMALNSCHTV
modifications: axial-trans-cyclooct-2-en-L-Lysine (TCOK) at an amber codon one residue upstream of the signal sequence, labelled with tetrazine-conjugated BODIPY-FL (BDP)
B2 showed a dissociation constant Kd of 0.5 nM. The Kd values of the last two molecules are within 1.5-fold of each other.
